Data from the Immune Epitope Database (IEDB).

Experiments:
Assay in all cases: IEDB peptide-MHC binding, purified MHC/competitive/radioactivity; filed as Kd, often an IC50 or EC50 that approximates it; ≥ and ≤ were set here for values at or beyond the usual limits of such assays
[1] = molecular target: HLA-A*03:01
[2] = molecular target: HLA-A*11:01
[3] = molecular target: HLA-A*31:01
[4] = molecular target: HLA-A*33:01
[5] = molecular target: HLA-A*68:01
[6] = molecular target: HLA-A*02:02
[7] = molecular target: HLA-A*02:03
[8] = molecular target: HLA-A*02:06
[9] = source organism: Vaccinia virus WR
[10] = source organism: Lymphocytic choriomeningitis virus (strain Armstrong)
[11] = source organism: SARS coronavirus Tor2
[12] = source organism: Mammarenavirus machupoense
[13] = source organism: Mammarenavirus lassaense
[14] = source organism: Mammarenavirus juninense

Row | Sequence | Kd [1, 9] | Kd [2, 9] | Kd [3, 9] | Kd [4, 9] | Kd [5, 9] | further results
1 | RASTTENAAY | 13400 nM | 564 nM | 2090 nM | ≥ 70000 nM | 4630 nM | –
2 | RCHDHYLCRH | – | – | – | – | – | Kd [1, 10]: ≥ 46800 nM; Kd [2, 10]: ≥ 69700 nM; Kd [3, 10]: 14400 nM; Kd [4, 10]: ≥ 70000 nM; Kd [5, 10]: ≥ 70100 nM
3 | RFVEELLHR | 2180 nM | 3450 nM | 19.7 nM | 686 nM | 227 nM | –
4 | RLEVIGLTT | – | – | – | – | – | Kd [6, 9]: ≥ 20000 nM; Kd [7, 9]: 13900 nM; Kd [8, 9]: ≥ 49800 nM
5 | RLRQDTEDIV | – | – | – | – | – | Kd [6, 9]: 134 nM; Kd [7, 9]: 284 nM; Kd [8, 9]: 7490 nM
6 | RSKQKIGDLR | 3830 nM | 14000 nM | 48.3 nM | 12700 nM | 1300 nM | –
7 | RTWKVLSIM | – | – | – | – | – | Kd [6, 9]: 19100 nM; Kd [7, 9]: 2630 nM; Kd [8, 9]: ≥ 34000 nM
8 | RVLYDEFVT | – | – | – | – | – | Kd [6, 9]: 2170 nM; Kd [7, 9]: 1410 nM; Kd [8, 9]: 1720 nM
9 | RVPRNLTLSK | – | – | – | – | – | Kd [1, 11]: 12.4 nM; Kd [2, 11]: 8.33 nM; Kd [3, 11]: 767 nM; Kd [4, 11]: ≥ 70000 nM; Kd [5, 11]: 2100 nM
10 | SALMTLDDLA | – | – | – | – | – | Kd [6, 9]: 210 nM; Kd [7, 9]: 2320 nM; Kd [8, 9]: 193 nM
11 | SFKLILAEY | ≥ 76900 nM | 13500 nM | 681 nM | 11700 nM | ≥ 26000 nM | –
12 | SILSLETVK | 24.9 nM | 4.15 nM | 2610 nM | 18500 nM | 515 nM | –
13 | SLPSYAAYA | – | – | – | – | – | Kd [6, 11]: 6.68 nM; Kd [7, 11]: 2.56 nM; Kd [8, 11]: 8.72 nM
14 | SMQGAVDINR | – | – | – | – | – | Kd [1, 11]: 2290 nM; Kd [2, 11]: 1160 nM; Kd [3, 11]: 188 nM; Kd [4, 11]: 470 nM; Kd [5, 11]: 142 nM
15 | SMSQELAEL | – | – | – | – | – | Kd [6, 9]: 3.98 nM; Kd [7, 9]: 7.66 nM; Kd [8, 9]: 186 nM
16 | SSSVDVDIY | ≥ 65300 nM | ≥ 43700 nM | 2730 nM | ≥ 72700 nM | 2950 nM | –
17 | SSTCSAVTDR | 11400 nM | 173 nM | 123 nM | 708 nM | 87.4 nM | –
18 | STIANSNIIK | 251 nM | 0.545 nM | 1130 nM | 19500 nM | 16.1 nM | –

Row | Sequence | Kd [1, 9] | Kd [2, 9] | Kd [3, 9] | Kd [4, 9] | Kd [5, 9] | further results
19 | STKADAVVA | – | – | – | – | – | Kd [6, 9]: 8190 nM; Kd [7, 9]: 4950 nM; Kd [8, 9]: 16200 nM
20 | SVKYYGRST | – | – | – | – | – | Kd [6, 9]: 6790 nM; Kd [7, 9]: 1160 nM; Kd [8, 9]: 19400 nM
21 | TAKVIKLVK | ≥ 52300 nM | 985 nM | 19900 nM | ≥ 77700 nM | 4910 nM | –
22 | TAVAKCNQNH | – | – | – | – | – | Kd [1, 12]: ≥ 70000 nM; Kd [2, 12]: ≥ 69700 nM; Kd [3, 12]: ≥ 70000 nM; Kd [4, 12]: ≥ 68800 nM; Kd [5, 12]: ≥ 70100 nM
23 | TISWMMKLGI | – | – | – | – | – | Kd [6, 9]: 7840 nM; Kd [7, 9]: 972 nM; Kd [8, 9]: 2780 nM
24 | TYLGPQFCK | – | – | – | – | – | Kd [1, 13]: 156 nM; Kd [2, 13]: 13.3 nM; Kd [3, 13]: 5080 nM; Kd [4, 13]: 310 nM; Kd [5, 13]: 32.3 nM
25 | VFGSTMNNK | – | – | – | – | – | Kd [1, 11]: 4340 nM; Kd [2, 11]: 2510 nM; Kd [3, 11]: 2630 nM; Kd [4, 11]: ≥ 43700 nM; Kd [5, 11]: 4460 nM
26 | VIENGILKK | 438 nM | 29.6 nM | 12900 nM | ≥ 77700 nM | 1830 nM | –
27 | VIRLLIWAY | 12900 nM | 1930 nM | 1220 nM | 12400 nM | 5930 nM | –
28 | VMNFIPIIY | 58.7 nM | 60.5 nM | ≥ 20900 nM | ≥ 77700 nM | 8850 nM | –
29 | VSLVKKNKKR | ≥ 30500 nM | 6450 nM | 324 nM | 6890 nM | ≥ 47800 nM | –
30 | VVIGLLFMI | – | – | – | – | – | Kd ([8]; source organism: Dengue virus 1 Brazil/97-11/1997): 5.61 nM
31 | YAKKFKTGMH | – | – | – | – | – | Kd [1, 14]: ≥ 70000 nM; Kd [2, 14]: ≥ 69700 nM; Kd [3, 14]: ≥ 28200 nM; Kd [4, 14]: ≥ 29200 nM; Kd [5, 14]: ≥ 70100 nM
32 | YLINPNILY | 1520 nM | 376 nM | ≥ 77900 nM | ≥ 45100 nM | 3240 nM | –
33 | YLLVKWIRK | 7.5 nM | 84 nM | 285 nM | 5200 nM | ≥ 35200 nM | –
34 | YSRVNHAKY | 1530 nM | ≥ 42200 nM | ≥ 73700 nM | ≥ 77700 nM | 1190 nM | –
35 | YTNEIIGYK | – | – | – | – | – | Kd [1, 11]: 4.97 nM; Kd [2, 11]: 2.56 nM; Kd [3, 11]: 937 nM; Kd [4, 11]: 414 nM; Kd [5, 11]: 2.24 nM
36 | YTYDRVDIY | 741 nM | 0.341 nM | 9370 nM | ≥ 36600 nM | 1.91 nM | –
